Experimental data: PMC10031210
Read-outs that look alike come from different tables or passages of the source.

Columns and labels:
[1] = target: N-FkpA (N-terminal domain of FkpA) (E. coli) (UniProt P45523); experiment: AUC
[2] = target: unfolded transmembrane β-barrel of outer membrane protein A (uOmpA171) (E. coli) (UniProt P0A910); experiment: AUC
Target sequence in this assay (P0A910 22-192): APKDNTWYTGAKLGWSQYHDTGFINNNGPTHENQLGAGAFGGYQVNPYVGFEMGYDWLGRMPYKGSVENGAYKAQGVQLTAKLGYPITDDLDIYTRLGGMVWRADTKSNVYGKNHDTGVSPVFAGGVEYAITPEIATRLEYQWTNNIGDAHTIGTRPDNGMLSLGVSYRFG

[3] = target: unfolded transmembrane β-barrel of outer membrane protein A (uOmpA171) (E. coli) (UniProt P0A910); experiment: AUC; remark: listed apart in the source
Target sequence in this assay (P0A910 22-192): as above

[4] = target: unfolded transmembrane β-barrel of outer membrane protein A (uOmpA171) (E. coli) (UniProt P0A910); experiment: AUC; remark: listed apart in the source
Target sequence in this assay (P0A910 22-192): as above

[5] = target: unfolded transmembrane β-barrel of outer membrane protein A (uOmpA171) (E. coli) (UniProt P0A910); experiment: AUC; remark: listed apart in the source
Target sequence in this assay (P0A910 22-192): as above

[6] = target: FkpA (full-length, dimeric form) (E. coli) (UniProt P45523); experiment: AUC
[7] = target: unfolded transmembrane β-barrel of outer membrane protein A (uOmpA171) (E. coli) (UniProt P0A910); experiment: AUC; remark: listed apart in the source
Target sequence in this assay (P0A910 22-192): as above

[8] = target: unfolded outer membrane protein X (uOmpX) (E. coli) (UniProt P0A917); experiment: cross-linking
[9] = target: unfolded transmembrane β-barrel of outer membrane protein A (uOmpA171) (E. coli) (UniProt P0A910); experiment: cross-linking
[10] = target: unfolded β-barrel assembly machine A (uBamA) (UniProt P0A940); experiment: cross-linking

| stoichiometry N [1] | Kd [2] [nM] | Kd [3] [nM] | Kd [4] [nM] | Kd [5] [nM] | stoichiometry N [6] | Kd [7] [nM] | crosslinking efficiency [8] [%] | crosslinking efficiency [9] [%] | crosslinking efficiency [10] [%] | Substance |
| --- | --- | --- | --- | --- | --- | --- | --- | --- | --- | --- |
| 2 | 44000 | – | – | – | – | – | – | – | – | N-FkpA (N-terminal domain of FkpA) (from UniProt P45523 26-270) (domain or fragment) |
| – | 1100 | 8 | 400 | 700 | 2 | 2900 | – | – | – | FkpA (full-length, dimeric form) (from UniProt P45523 26-270) (natural protein) |
| – | – | – | – | – | – | – | 81 | 83.2 | 81.8 | FkpA pAzF variant Y225pAzF (from UniProt P45523 26-270) (natural protein) |
